{"source": "paper PMC11883961", "binders": {"B1": {"name": "MAPRE1 (native MS), Q15691 1-268 (natural protein)", "chain": "MAVNVYSTSVTSDNLSRHDMLAWINESLQLNLTKIEQLCSGAAYCQFMDMLFPGSIALKKVKFQAKLEHEYIQNFKILQAGFKRMGVDKIIPVDKLVKGKFQDNFEFVQWFKKFFDANYDGKDYDPVAARQGQETAVAPSLVAPALNKPKKPLTSSSAAPQRPISTQRTAAAPKAGPGVVRKNPGVGNGDDEAAELMQQVNVLKLTVEDLEKERDFYFGKLRNIELICQENEGENDPVLQRIVDILYATDEGFVIPDEGGPQEEQEEY"}}, "molecular_target": "T1, MAPRE1 (native MS), Q15691", "T1 chain": "B1 chain", "experiment": "native MS", "settings": "remark: other sources report otherwise"}
{"binder": "B1", "values": [{"measurement": "stoichiometry N", "result": 2}]}
